In test [1] the target is HaloTag7 C61S single mutant (UniProt P0A3G2). Put plainly: SDS-PAGE gel shift assay.
The target in test [2] is HaloTag7 C262S single mutant (UniProt P0A3G2). Nature of the test: SDS-PAGE gel shift assay. (A gel shift assay detects complexes by their altered migration in electrophoresis.)

What is called stoichiometry N is a count of units in the complex or per binding partner.

Consider “HaloTag7 C61S single mutant (from UniProt P0A3G2 1-293) (enzyme)”, for which the stoichiometry N in test [1] turned out to be 2.
Take “HaloTag7 C262S single mutant (from UniProt P0A3G2 1-293) (enzyme)”: in test [2], the stoichiometry N was found to be 2.
